Measured values taken from US20220280440A1, “METHOD FOR THE MANUFACTURE OF A DOSAGE FORM WITH MUCOADHESIVE PROPERTIES FOR BUCCAL ADMINISTRATION OF BIOLOGICS” (UNIVERSIDAD DE CHILE, priority 2016, published 2022).

Key:
[1] = Effect of the inkjet printing process on nanosystems (properties before and after printing on inert substrate); format: physicochemical; conditions: lysozyme in nanoparticles
Procedure: The process of printing on an inert substrate using a suspension with a nanosystem as carriers of biologic drug models was performed using polymeric nanoparticles. The suspension was incorporated into a cartridge for inkjet printing. The particle properties were measured before and after the printing process. […] Results are expressed as means (standard deviation). Except for an increase in the polydispersity index (PDI), the particles maintain their properties during the printing process and define the methodology for incorporating drug loaded nanoparticles on polymer films.
The obtained printing inks with lysozyme or insulin were loaded into Hewlett Packard cartridges compatible with Hewlett Packard Deskjet 1000 printer, and it was installed to run the printing experiments. Using a commercial software tool appropriate for the task, surfaces of 3×3 cm^2 were printed on an inert substrate to evaluate the effect of the printing process on the polymeric nanoparticles. After the printing process, the printed polymeric nanoparticles were recovered by refluxing with 1 mL of Milli-Q® water, and their physicochemical properties in terms of size, polydispersity index, and zeta potential were determined.

[2] = FTIR of lysozyme inks with or without glycerol; format: physicochemical; conditions: FIG. 13
Procedure: On the other hand, since these inks require the addition of glycerol as a viscosity agent, the evaluation of lysozyme inks was performed with or without glycerol by infrared spectroscopy Fourier transform (FTIR).

Substance: lysozyme
- Amount immobilized at the particle and biologic structure during the printing process (load and protein activity studies) [1]: preserved during the printing process
- Major bands of the FTIR spectra, ink with or without glycerol [2]: does not change during the process
